In patent US9518268B2, “Drought tolerant transgenic plants and method of making same” (PURDUE RESEARCH FOUNDATION, priority 2013, dated 2016):

Tested on: clade A PP2Cs
Test: Yeast two-hybrid assay of PYL13 with clade A PP2Cs
Assay type: binding, Arabidopsis
Details: ABA-independent
Procedure: To investigate how PYL13 may function in plants, the interaction between PYL13 and clade A PP2Cs in yeast two-hybrid assays was examined, as shown in FIG. 3. […] PYL13 binds strongly with ABI1, ABI2, PP2CA, and HAI2 but weakly with HAB1 and HAI1 (FIG. 3A). […] PYL13 fused to the GAL4-DNA-binding domain (BD) was used as […], and PP2Cs fused to the GAL4-activating domain (AD) were used as baits. Interaction was determined by growth assay on media lacking His and His/Ade in the presence and absence of ABA. Dilutions (10^−1, 10^−2, and 10^−3) of saturated cultures were spotted onto the plates, which were photographed after 5 days.

B1: PYL13: Arabidopsis thaliana PYR/PYL/RCAR family protein PYL13, SEQ ID NO: 1 (protein, listed as Arabidopsis thaliana)
chain: MESSKQKRCRSSVVETIEAPLPLVWSILRSFDKPQAYQRFVKSCTMRSGGGGGKGGEGKGSVRDVTLVSGFPADFSTERLEELDDESHVMVVSIIGGNHRLVNYKSKTKVVASPEDMAKKTVVVESYVVDVPEGTSEEDTIFFVDNIIRYNLTSLAKLTKKMMK
With ABI1, ABI2, PP2CA, and HAI2
  binding in yeast two-hybrid assay: strongly
With HAB1 and HAI1
  binding in yeast two-hybrid assay: weakly
